Laboratory results as given in paper PMC12657241.

How the values were obtained:
[1] = biological target: OppA-iso, evolved OppA variant (E. coli) (UniProt P23843); assay: MST
[2] = biological target: wild-type OppA, periplasmic binding protein of the oligopeptide permease (Opp) ABC transporter (E. coli) (UniProt P23843); assay: MST

Row | Substance | Kd [1] | Kd [2]
1 | G-SisoK, isopeptide-linked tripeptide | 37 µM | 50 µM
2 | SisoK, isopeptide-linked dipeptide (serine on the ε-amine of lysine) | 300 µM | 300 µM
3 | linear GSK tripeptide | 275 µM | 71 µM
